From patent US12491161B2, “Single vial vaccine formulations” (priority 2013, dated 2025) come the findings set out here.

Series [1] can be described thus: Emulsion particle size and polydispersity by dynamic light scattering (DLS). The series is classed as physicochemical. The procedure:
Emulsion particle size, polydispersity (PdI), and zeta potential were evaluated using dynamic light scattering (DLS) on a Malvern (Worcestershire, UK) Nano-ZS. Measurements were performed generally as previously described (Fox et al., 2011, Pharmaceutical Development and Technology, 16(5):511-519). Briefly, all DLS size measurements were performed in 10^−2 dilutions into 20 nm filtered water (described above) and evaluated in triplicate on single aliquots. For zeta-potential measurements, the same aliquot was evaluated using triplicate measurements and an automatic software determination of the measurement duration between 20 and 40 runs.
Particle size, polydispersity, and zeta potential measurements were made as described previously (Fox et al., 2008, Colloids and Surfaces B: Biointerfaces, 65:98-105) using a Malvern (Worcestershire, UK) Nano-ZS after 100 times dilution into ultrapure water filtered through a 20 nm Whatman (Maidstone, Kent, UK) Anotop plus filter. Nanoparticle tracking analysis was performed with a NanoSight LM10 (Amesbury, UK) with a 405 nm laser and a Hamamatsu Orca Flash 2.8 CMOS camera (Hamamatsu, JP). Samples were diluted 1:105 in 20-nm filtered ultrapure water in three steps. Each sample was diluted and analyzed four times, independently, to account for dilution error. Ninety seconds of video were recorded for each sample with optimized shutter and gain settings. The camera histogram gating was adjusted to maximize sensitivity. Data analysis was performed using NanoSight NTA 2.3 software (Wiltshire, UK) in standard mode.

Series [2] in a line: Stability under continuous cold-chain maintenance. The series is classed as physicochemical. The settings on record: 4° C.

B1: ID93: recombinant tandem fusion protein antigen of Mtb Rv3619, Rv1813, Rv3620 and Rv2608 (SEQ ID NO: 1 or 2) (protein)
chain: MGSSHHHHHHSSGLVPRGSHMTINYQFGDVDAHGAMIRAQAGSLEAEHQAIISDVLTASDFWGGAGSAACQGFITQLGRNFQVIYEQANAHGQKVQAAGNNMAQTDSAVGSSWAGTHLANGSMSEVMMSEIAGLPIPPIIHYGAIAYAPSGASGKAWHQRTPARAEQVALEKCGDKTCKVVSRFTRCGAVAYNGSKYQGGTGLTRRAAEDDAVNRLEGGRIVNWACNELMTSRFMTDPHAMRDMAGRFEVHAQTVEDEARRMWASAQNISGAGWSGMAEATSLDTMTQMNQAFRNIVNMLHGVRDGLVRDANNYEQQEQASQQILSSVDINFAVLPPEVNSARIFAGAGLGPMLAAASAWDGLAEELHAAAGSFASVTTGLAGDAWHGPASLAMTRAASPYVGWLNTAAGQAAQAAGQARLAASAFEATLAATVSPAMVAANRTRLASLVAANLLGQNAPAIAAAEAEYEQIWAQDVAAMFGYHSAASAVATQLAPIQEGLQQQLQNVLAQLASGNLGSGNVGVGNIGNDNIGNANIGFGNRGDANIGIGNIGDRNLGIGNTGNWNIGIGITGNGQIGFGKPANPDVLVVGNGGPGVTALVMGGTDSLLPLPNIPLLEYAARFITPVHPGYTATFLETPSQFFPFTGLNSLTYDVSVAQGVTNLHTAIMAQLAAGNEVVVFGTSQSATIATFEMRYLQSLPAHLRPGLDELSFTLTGNPNRPDGGILTRFGFSIPQLGFTLSGATPADAYPTVDYAFQYDGVNDFPKYPLNVFATANAIAGILFLHSGLIALPPDLASGVVQPVSSPDVLTTYILLPSQDLPLLVPLRAIPLLGNPLADLIQPDLRVLVELGYDRTAHQDVPSPFGLFPDVDWAEVAADLQQGAVQGVNDALSGLGLPPPWQPALPRLFST
As for B1, the “effect of heat stress on particle size” value in series [1] (50° C. for 30 days) is recorded as “reduced the average particle size observed; however, this was not statistically significant”. Moreover, the “effect of heat stress on polydispersity” value in series [1] (50° C. for 30 days, liquid or lyophilized formats) is “did not affect the polydispersity”. Moreover, the “particle size (Z-average diameter)” value in series [1] (unstressed) is recorded as “approximately 70 nm”. The “stability under continuous cold-chain maintenance” value in series [2] is on record as “stable for more than a year”.
